Measured values published in paper PMC5973702.

Target: human voltage-gated K+ channel Kv1.3 with C-terminal FLAG/10Xhis tag, expressed in Tetrahymena thermophila (human) (UniProt P22001)
Assay: fluorescence polarisation

Chain of UniProt P22001 (P22001 whole entry): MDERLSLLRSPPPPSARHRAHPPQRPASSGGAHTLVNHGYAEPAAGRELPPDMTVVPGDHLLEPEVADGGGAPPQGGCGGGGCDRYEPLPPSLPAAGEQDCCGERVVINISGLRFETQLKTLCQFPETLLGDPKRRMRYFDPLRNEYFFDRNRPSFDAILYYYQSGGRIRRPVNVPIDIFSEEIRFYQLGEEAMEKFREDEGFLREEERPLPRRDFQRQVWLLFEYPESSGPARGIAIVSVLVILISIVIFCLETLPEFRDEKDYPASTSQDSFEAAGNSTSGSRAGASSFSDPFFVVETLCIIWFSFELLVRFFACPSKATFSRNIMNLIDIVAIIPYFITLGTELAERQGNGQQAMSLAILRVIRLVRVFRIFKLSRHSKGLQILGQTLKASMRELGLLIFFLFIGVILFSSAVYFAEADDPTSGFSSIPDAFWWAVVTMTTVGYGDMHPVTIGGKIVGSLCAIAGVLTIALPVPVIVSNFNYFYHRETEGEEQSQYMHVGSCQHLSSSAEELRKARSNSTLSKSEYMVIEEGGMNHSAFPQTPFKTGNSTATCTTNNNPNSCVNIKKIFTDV

FAM-ShK (Fluorescein 6-carbonyl-labelled Stichodactyla toxin) (peptide)
Kd: 11.5 nM
